Measurements: patent CN115746140A (SHENZHEN KANGTI BIOMEDICAL TECH CO LTD, dated 2023)

Target: T1, PCSK9蛋白 (Proprotein convertase subtilisin kexin type 9) (UniProt Q8NBP7 31-692, limits assumed)
T1 construct: also called PCSK9抗原
Test: SPR; immobilised partner and format not stated

T1 sequence (Q8NBP7 31-692 limits assumed): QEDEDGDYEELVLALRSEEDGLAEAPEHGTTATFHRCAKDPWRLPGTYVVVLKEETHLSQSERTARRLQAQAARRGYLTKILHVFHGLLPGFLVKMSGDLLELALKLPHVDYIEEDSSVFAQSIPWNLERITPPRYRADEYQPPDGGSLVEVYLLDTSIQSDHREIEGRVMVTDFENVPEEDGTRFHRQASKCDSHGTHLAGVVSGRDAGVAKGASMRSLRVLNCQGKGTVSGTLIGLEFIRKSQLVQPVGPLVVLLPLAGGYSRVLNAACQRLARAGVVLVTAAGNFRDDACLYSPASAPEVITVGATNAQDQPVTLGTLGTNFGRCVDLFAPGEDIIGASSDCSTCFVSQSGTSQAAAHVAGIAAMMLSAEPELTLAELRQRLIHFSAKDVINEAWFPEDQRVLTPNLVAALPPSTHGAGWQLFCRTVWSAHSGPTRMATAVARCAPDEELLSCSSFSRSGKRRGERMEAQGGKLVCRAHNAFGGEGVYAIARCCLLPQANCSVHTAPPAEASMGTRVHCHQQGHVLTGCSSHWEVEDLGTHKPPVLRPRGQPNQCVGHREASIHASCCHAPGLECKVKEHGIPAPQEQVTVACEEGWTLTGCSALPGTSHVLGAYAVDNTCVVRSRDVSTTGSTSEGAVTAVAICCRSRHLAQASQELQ

B1: 纳米抗体P2-11D (anti-PCSK9 nanobody P2-11D) (VHH)
VHH: DVQLQESGGGLVQPGGSLRLSCAASGFTFRAYDMGWYRQAPGKQRDLVAVISSSGGTPNYADSVKDRFTISRDNDKNTVYLQMNSLKSEDTALYYCNARWESSAYERDYWGRGTQVTVSS
notes: Monovalent alpaca VHH, expressed from pET22b in E. coli BL21 and purified on Ni resin and by size exclusion; also called 抗PCSK9单域重链抗体; 抗PCSK9的纳米抗体
Q: What does the source list for B1?
A: Kd: 70 nM; koff: 0.00921 s⁻¹; kon: 130000 M⁻¹ s⁻¹
